Like-named read-outs stand apart in the source and are kept apart here.
Key:
Experiment in all cases: AUC
[1] = molecular target: FGF9^WT, purified recombinant wild type FGF9 (UniProt P54130)
[2] = molecular target: FGF9^WT, purified recombinant wild type FGF9 (UniProt P54130); remark: listed apart in the source
[3] = molecular target: FGF9^Eks, purified recombinant FGF9 with the Eks mutation N143T (UniProt P54130)

stoichiometry N [1]	Ka [2] [M⁻¹]	stoichiometry N [2]	Ka [3] [M⁻¹]	stoichiometry N [3]	Substance
2	1.04e+07	2			FGF9^WT, purified recombinant wild type FGF9 (from UniProt P54130 4-208) (natural protein)
			119000	2	FGF9^Eks, purified recombinant FGF9 with the Eks mutation N143T (from UniProt P54130 4-208) (natural protein)
